Biological target: Anaphase-Promoting Complex/Cyclosome (APC), Xenopus, immunoprecipitated on Cdc27 antibody beads (Xenopus (endogenous in egg extract))
Assay: pull-down

For “double HA-tagged human Cdc20, wild type (from UniProt Q12834 1-499) (natural protein)”, the percent of the deubiquitinated Cdc20 bound to the APC was 47%.
